Experimental data reported in patent US20230349903A1, “ASSAYS AND REAGENTS FOR CHARACTERIZATION OF MHCI PEPTIDE BINDING” (priority 2020, published 2023).
Where no end group is shown, it is not given here. [ ]: non-standard residue; d: D form. code J = not defined here

Key:
A*26:01 = A*26:01 (Homo sapiens, UniProt P04439, A114D/A173T/A270S/D101N/D185E/E277Q/E87N/F33Y/G231S/I121R/I218V/K168Q/L180W/L300P/L318F/P208A/P217A/Q86R/Q94H/R138Q/S129P/T187R/T323A/T345S/V100A/V358M); conditions: IEDB value, purified MHC/direct/fluorescence, read-out: dissociation constant KD (~EC50); cited from earlier work
C*02:02 [1] = molecular target: T1, C*02:02 (Homo sapiens, UniProt P10321, A176E/A235T/A330V/A97T/C350S/D114A/D33Y/G40S/L171W/L180W/L218V/M285V/M309V/M331V/N104K/P208H/Q277E/Q291P/R45H/S101N/S123Y/S297R/S48A/T187E/T329A/T363A/V319A); test: ELISA of small scale MHCI refold (anti-HLA W6/32 capture, anti-B2M detection); assay type: binding; conditions: for S/N ELISA value: C*02:02, 1.0 μg/mL MHCI, no peptide control as background; for normalized ELISA OD: C*02:02, 1 μg/mL MHCI, normalized to no peptide control
Procedure: Recombinant HLA alleles and B2M were over-expressed in E. coli, purified from inclusion bodies, and stored under denaturing conditions (6M Guanidine HCL, 25 mM Tris pH 8) in −80° C. as described above. In a 200 μL reaction, the peptide (0.01 mM, per well), oxidized and reduced glutathione (0.5 mM and 4.0 mM, respectively), recombinant HLA alleles (0.03 mg/mL) and B2M (0.01 mg/mL) were all combined within a 96-well plate. Refold screens were performed with five different peptides for each HLA of interest as described above (Table 3). and the MHCI complex was incubated at 4° C. for 3-5 days to allow refolding. Refolded samples were analyzed by ELISA, and the highest performing peptide was selected for further analysis. All data was analyzed relative to the negative control refold, which was performed in the absence of peptide (labeled NP). HLA-A*02:01 refolded with the CMV pp65 viral epitope was used as a positive control. […]
(§1) A 384-well Nunc Maxisorp plate (ThermoFisher Scientific, Waltham, MA) was coated with 25 μL/well of mouse IgG2a anti-HLA ABC clone W6/32 (Novus Biological, Littleton, Co.) at 8 μg/mL in coating buffer (0.05 sodium carbonate pH 9.6). After overnight incubation at 4° C., the plate was washed 3 times with wash buffer (PBS, 0.5% Tween 20). The plate was then blocked with 50 μL/well of Block buffer (PBS, 0.5% BSA, 10 ppm Proclin) and incubated at room temperature (RT) with agitation for 1 hour. […] The plate was washed six times and 25 IL of biotinylated mouse IgG1 anti-human B2M (BioLegend, San Diego, CA) at 100 ng/mL in assay diluent was added to each well. After a 1 hour incubation at RT and six washes, 25 μL/well of Streptavidin-Horseradish Peroxidase (GE, Marlborough, MA) was added to the plate and incubated for 30 min at RT. The color reaction was developed with TMB peroxidase substrate (Moss, Pasadena, MD) at RT for 15 min, and the reaction was stopped with 1M phosphoric acid. The absorbance was measured at a wavelength of […] with a reference at 620 nm. Refolded MHC monomers without peptide or irrelevant peptide were used as the negative controls for each allele to normalize the signal.
(§2) Recombinant HLA alleles and B2M were over-expressed in E. coli, purified from inclusion bodies, and stored under denaturing conditions (6M Guanidine HCl, 25 mM Tris pH 8) in −80° C. as described above. In a 200 μL reaction, the peptide (0.01 mM, per well), oxidized and reduced glutathione (0.5 mM and 4.0 mM, respectively), recombinant HLA alleles (0.03 mg/mL) and B2M (0.01 mg/mL) were all combined in a 96-well plate. Refolds were performed with five different peptides for each HLA of interest as described above (Table 3), and the MHCI complex was incubated at 4° C. for 3-5 days to allow refolding. MHCI complex refolds were also performed in the absence of a peptide and used as the negative control to calculate the signal to noise (S/N) for the experimental peptides. Given that there should have been minimal properly refolded complex in the absence of a peptide, these samples provided the overall background of the assay to calculate the S/N value. HLA-A*02:01 refolded with the CMV pp65 viral epitope was used as a positive control. Peptides yielding the highest signal to noise ratio (S/N) were selected for further analysis.
Two different ELISA assays were evaluated to optimize the sensitivity of the assay. In the first assay format, the refolded MHCI was captured with anti-B2M antibody and detected with pan ABC anti-HLA antibody (clone W6/32). In the second assay format, MHCI was captured with the pan ABC anti-HLA antibody (clone W6/32) and detected with the anti-B2M antibody. In both assays, a 384-well Nunc Maxisorp plate (Thermo Fisher Scientific, Waltham, MA) was coated with 25 μL/well of capture antibody, mouse IgG1 anti-human B2M (BioLegend, San Diego, CA) or mouse IgG2a anti-HLA ABC clone W6/32 (Novus Biological, Littleton, Co.), at 8 μg/mL in coating buffer (0.05 sodium carbonate pH 9.6). […]

C*02:02 [2] = molecular target: T1, C*02:02; conditions: IEDB value, cellular MHC/mass spectrometry; cited from earlier work
C*14:02 = C*14:02 (Homo sapiens, UniProt P10321, A176E/A330V/A35S/A97T/C350S/D114A/D33S/L171W/L180R/L218V/M285V/M309V/M331V/P208H/Q277E/Q291P/R121W/R243W/S123F/S297R/S48A/T329A/T363A/V319A); conditions: IEDB value, purified MHC/direct/fluorescence, read-out: dissociation constant KD; cited from earlier work
HLA-A*02:03 = HLA-A*02:03 (Homo sapiens, UniProt P04439, A173T/D140Y/D185E/D98H/E277Q/G131W/G231S/I119V/I121R/I166T/I218V/L180W/L300P/L318F/N151K/N90K/P208A/P217A/Q86G/Q94H/R138H/R169H/T345S); test: ELISA of small scale MHCI refold (anti-HLA W6/32 capture, anti-B2M detection); assay type: binding; parameters: inferred from enzymatic biotinylation; made in house; host or cells: Escherichia coli; conditions: for S/N ELISA value: A*02:03, 1.0 μg/mL MHCI, no peptide control as background; for normalized ELISA OD (signal to background): A*02:03, 1 μg/mL MHCI, normalized to no peptide control
B*35:03 [3] = molecular target: T2, B*35:03 (Homo sapiens, UniProt P01889, A329T/A93T/A95T/C349S/D201E/D98Y/E176V/E187L/E204Q/E69T/I218V/K202T/L119I/Q94N/R155S/R180L/S121R/S35A/S48A/T118I/V127L/V306I/V36M/Y140F/Y91F); test: as above; assay type: binding; parameters: inferred from enzymatic biotinylation; made in house; host or cells: Escherichia coli; conditions: for S/N ELISA value: B*35:03, 1.0 μg/mL MHCI, no peptide control as background; for normalized ELISA OD (signal to background): B*35:03, 1 μg/mL MHCI, normalized to no peptide control
Procedure: Recombinant HLA alleles and B2M were over-expressed in E. coli, purified from inclusion bodies, and stored under denaturing conditions (6M Guanidine HCL, 25 mM Tris pH 8) in −80° C. as described above. In a 200 μL reaction, the peptide (0.01 mM, per well), oxidized and reduced glutathione (0.5 mM and 4.0 mM, respectively), recombinant HLA alleles (0.03 mg/mL) and B2M (0.01 mg/mL) were all combined within a 96-well plate. Refold screens were performed with five different peptides for each HLA of interest as described above (Table 3). and the MHCI complex was incubated at 4° C. for 3-5 days to allow refolding. Refolded samples were analyzed by ELISA, and the highest performing peptide was selected for further analysis. All data was analyzed relative to the negative control refold, which was performed in the absence of peptide (labeled NP). HLA-A*02:01 refolded with the CMV pp65 viral epitope was used as a positive control.
Formation of stable conditional MHCI complexes upon refolding with the redesigned peptides were identified by ELISA as described above. […] The original peptide (containing no UV amino acid substitution) was used as a positive control. All peptides used here were purchased from JPT (www.jpt.com) or ELIM Biopharm (www.elimbio.com).
as §1, §2
Two different ELISA assays were evaluated to optimize the sensitivity of the assay. In the first assay format, the refolded MHCI was captured with anti-B2M antibody and detected with pan ABC anti-HLA antibody (clone W6/32). In the second assay format, MHCI was captured with the pan ABC anti-HLA antibody (clone W6/32) and detected with the anti-B2M antibody. […]

B*35:03 [4] = molecular target: T2, B*35:03; conditions: IEDB value, cellular MHC/mass spectrometry; cited from earlier work

ETTNWLWAF [Peptide A2601-02]
Kd (A*26:01): 2 nM

IAKSGTSEF (FAAEAQKL) [Peptide C0202-03]
S/N ELISA value (C*02:02 [1]): highest S/N value
normalized ELISA OD (C*02:02 [1]): highest normalized OD value
ligand presentation (C*02:02 [2]): Positive

DVVPMVTQM [Peptide A2601-03]
Kd (A*26:01): 3 nM

TYLQSLASL [Peptide C1402-02]
Kd (C*14:02): 0.1 nM

FMYEGDTPL [Peptide C1402-04]
Kd (C*14:02): 0.1 nM

FMYJDFHFI [Peptide A0203-02-02]
S/N ELISA value (HLA-A*02:03): highest S/N value
normalized ELISA OD (signal to background) (HLA-A*02:03): highest normalized ELISA OD value

TPAJYFHVL (TPA[code J]YFHVL; not fully specified; reading uncertain) [Peptide B3503-04-02]
S/N ELISA value (B*35:03 [3]): highest S/N value
normalized ELISA OD (signal to background) (B*35:03 [3]): highest normalized ELISA OD value

FAAEAJKL (FAAEA[code J]KL; not fully specified; reading uncertain) [Peptide C0202-03-03]
S/N ELISA value (C*02:02 [1]): highest S/N value
S/N ELISA value (C*02:02 [1]; listed as C0202-02-03): 8
normalized ELISA OD (C*02:02 [1]): highest normalized ELISA OD value
normalized ELISA OD (C*02:02 [1]; listed as C0202-02-03): 8

SYMSTFPLF [Peptide C1402-01]
Kd (C*14:02): 0.1 nM

YYRYPTGESY [Peptide C1402-03]
Kd (C*14:02): 0.1 nM

APEEHPVLL [Peptide B3503-03]
ligand presentation (B*35:03 [4]): Positive

TPANYFHVL [Peptide B3503-04]
ligand presentation (B*35:03 [4]): Positive
S/N ELISA value (B*35:03 [3]): highest OD value
normalized ELISA OD (signal to background) (B*35:03 [3]): highest OD value

FAAEAQKL [Peptide C0202-02]
S/N ELISA value (C*02:02 [1]): ~8
normalized ELISA OD (C*02:02 [1]): ~8
ligand presentation (C*02:02 [2]): Positive

TJANYFHVL (TXANYFHVL; not fully specified) [Peptide B3503-04-01]
S/N ELISA value (B*35:03 [3]): very low S/N ELISA values
normalized ELISA OD (signal to background) (B*35:03 [3]): very low normalized ELISA values

FAAJAQKL (FAAXAQKL; not fully specified) [Peptide C0202-03-02]
S/N ELISA value (C*02:02 [1]): 6
normalized ELISA OD (C*02:02 [1]): 6

KIRDLLPVM [Peptide C0202-04]
ligand presentation (C*02:02 [2]): Positive

FJAEAQKL (FXAEAQKL; not fully specified) [Peptide C0202-03-01]
S/N ELISA value (C*02:02 [1]): very low S/N ELISA values
normalized ELISA OD (C*02:02 [1]): very low normalized ELISA values

SYMSTFPLF [Peptide C0202-05]
ligand presentation (C*02:02 [2]): Positive

DAVPFPISL [Peptide C0202-01]
ligand presentation (C*02:02 [2]): Positive

FAAEAQKJ (FAAEAQKX; not fully specified) [Peptide C0202-03-04]
S/N ELISA value (C*02:02 [1]): very low S/N ELISA values
normalized ELISA OD (C*02:02 [1]): very low normalized ELISA values

IPAEGRVAL [Peptide B3503-02]
ligand presentation (B*35:03 [4]): Positive

FJYSDFHFI [Peptide A0203-02-01]
S/N ELISA value (HLA-A*02:03): very low S/N ELISA values
normalized ELISA OD (signal to background) (HLA-A*02:03): very low normalized ELISA values

YPYPYPHTAAFSKLIYL [Peptide B3503-05]
ligand presentation (B*35:03 [4]): Positive
